Assay results reported in publication PMC12397908, “Cryo-EM structures of the MnmE–MnmG complex reveal large conformational changes and provide new insights into the mechanism of tRNA modification” (Nucleic Acids Research, 2025).
Where a chain is given by its changes, count along the chain named.

B1: Escherichia coli MnmE (wild type) (enzyme, E. coli, UniProt P25522 1-454, looked up)
chain: MSDNDTIVAQATPPGRGGVGILRISGFKAREVAETVLGKLPKPRYADYLPFKDADGSVLDQGIALWFPGPNSFTGEDVLELQGHGGPVILDLLLKRILTIPGLRIARPGEFSERAFLNDKLDLAQAEAIADLIDASSEQAARSALNSLQGAFSARVNHLVEALTHLRIYVEAAIDFPDEEIDFLSDGKIEAQLNDVIADLDAVRAEARQGSLLREGMKVVIAGRPNAGKSSLLNALAGREAAIVTDIAGTTRDVLREHIHIDGMPLHIIDTAGLREASDEVERIGIERAWQEIEQADRVLFMVDGTTTDAVDPAEIWPEFIARLPAKLPITVVRNKADITGETLGMSEVNGHALIRLSARTGEGVDVLRNHLKQSMGFDTNMEGGFLARRRHLQALEQAAEHLQQGKAQLLGAWAGELLAEELRLAQQNLSEITGEFTSDDLLGRIFSSFCIGK
notes: E. coli MnmE, wild-type open reading frame in pET20b, preceded by an N-terminal His-tag and TEV cleavage site; 454 residues (K454 is the C-terminal residue); Homodimer (α2); also called EcMnmE; α2; source: E. coli BL21(DE3), purified (Ni-NTA IMAC, alkaline phosphatase treatment, second Ni-NTA, Superdex200 SEC)
B2: Escherichia coli MnmE K454A (enzyme, E. coli, UniProt P25522 1-454, looked up)
chain: B1 chain with K454A
notes: E. coli MnmE point variant made by QuikChange from the wild-type open reading frame in pET20b; Variant of m1; source: E. coli BL21(DE3), purified (Ni-NTA IMAC, alkaline phosphatase treatment, second Ni-NTA, Superdex200 SEC)
B3: Escherichia coli MnmG (enzyme, E. coli)
chain: MFYPDPFDVIIIGGGHAGTEAAMAAARMGQQTLLLTHNIDTLGQMSCNPAIGGIGKGHLVKEVDALGGLMAKAIDQAGIQFRILNASKGPAVRATRAQADRVLYRQAVRTALENQPNLMIFQQAVEDLIVENDRVVGAVTQMGLKFRAKAVVLTVGTFLDGKIHIGLDNYSGGRAGDPPSIPLSRRLRELPLRVGRLKTGTPPRIDARTIDFSVLAQQHGDNPMPVFSFMGNASQHPQQVPCYITHTNEKTHDVIRSNLDRSPMYAGVIEGVGPRYCPSIEDKVMRFADRNQHQIFLEPEGLTSNEIYPNGISTSLPFDVQMQIVRSMQGMENAKIVRPGYAIEYDFFDPRDLKPTLESKFIQGLFFAGQINGTTGYEEAAAQGLLAGLNAARLSADKEGWAPARSQAYLGVLVDDLCTLGTKEPYRMFTSRAEYRLMLREDNADLRLTEIGRELGLVDDERWARFNEKLENIERERQRLKSTWVTPSAEAAAEVNAHLTAPLSREASGEDLLRRPEMTYEKLTTLTPFAPALTDEQAAEQVEIQVKYEGYIARQQDEIEKQLRNENTLLPATLDYRQVSGLSNEVIAKLNDHKPASIGQASRISGVTPAAISILLVWLKKQGMLRRSA
notes: E. coli MnmG in pET14b, preceded by an N-terminal His-tag and TEV cleavage site; domains described over residues 1-629; Homodimer (β2); also called EcMnmG; β2; source: E. coli BL21(DE3), purified (Ni-NTA IMAC, Superdex200 SEC)
B4: Escherichia coli MnmE-Δ436–454 (domain or fragment, E. coli, UniProt P25522 1-435, looked up)
chain: MSDNDTIVAQATPPGRGGVGILRISGFKAREVAETVLGKLPKPRYADYLPFKDADGSVLDQGIALWFPGPNSFTGEDVLELQGHGGPVILDLLLKRILTIPGLRIARPGEFSERAFLNDKLDLAQAEAIADLIDASSEQAARSALNSLQGAFSARVNHLVEALTHLRIYVEAAIDFPDEEIDFLSDGKIEAQLNDVIADLDAVRAEARQGSLLREGMKVVIAGRPNAGKSSLLNALAGREAAIVTDIAGTTRDVLREHIHIDGMPLHIIDTAGLREASDEVERIGIERAWQEIEQADRVLFMVDGTTTDAVDPAEIWPEFIARLPAKLPITVVRNKADITGETLGMSEVNGHALIRLSARTGEGVDVLRNHLKQSMGFDTNMEGGFLARRRHLQALEQAAEHLQQGKAQLLGAWAGELLAEELRLAQQNLSEITG
notes: E. coli MnmE without the entire C-terminal swivel helix (deletion of residues 436-454; K454 is the C-terminal residue of MnmE); C-terminal truncation of m1; made from the wild-type open reading frame in pET20b; source: E. coli BL21(DE3), purified (Ni-NTA IMAC, alkaline phosphatase treatment, second Ni-NTA, Superdex200 SEC)
B5: Escherichia coli MnmE-Δ450–454 (domain or fragment, E. coli, UniProt P25522 1-449, looked up)
chain: MSDNDTIVAQATPPGRGGVGILRISGFKAREVAETVLGKLPKPRYADYLPFKDADGSVLDQGIALWFPGPNSFTGEDVLELQGHGGPVILDLLLKRILTIPGLRIARPGEFSERAFLNDKLDLAQAEAIADLIDASSEQAARSALNSLQGAFSARVNHLVEALTHLRIYVEAAIDFPDEEIDFLSDGKIEAQLNDVIADLDAVRAEARQGSLLREGMKVVIAGRPNAGKSSLLNALAGREAAIVTDIAGTTRDVLREHIHIDGMPLHIIDTAGLREASDEVERIGIERAWQEIEQADRVLFMVDGTTTDAVDPAEIWPEFIARLPAKLPITVVRNKADITGETLGMSEVNGHALIRLSARTGEGVDVLRNHLKQSMGFDTNMEGGFLARRRHLQALEQAAEHLQQGKAQLLGAWAGELLAEELRLAQQNLSEITGEFTSDDLLGRIFSS
notes: E. coli MnmE without the C-terminal conserved 450FCIGK454 motif (deletion of residues 450-454; K454 is the C-terminal residue of MnmE); C-terminal truncation of m1; made from the wild-type open reading frame in pET20b; source: E. coli BL21(DE3), purified (Ni-NTA IMAC, alkaline phosphatase treatment, second Ni-NTA, Superdex200 SEC)

Legend:
[1] = target: the molecule itself; test: cryo-EM structure; MnmE–MnmG complex formed with GppNHp, FAD and K+ (20 mM HEPES pH 7.5, 150 mM KCl, 5 mM MgCl2, 2 mM DTT), purified by SEC; α2β2 and α4β2 classes
Escherichia coli MnmG [2] = target: B3; test: ITC; MnmE 700 μM in the syringe, MnmG 70 μM in the cell; with 1 mM FAD; 25°C; 20 mM HEPES pH 7.5, 75 mM NaCl, 75 mM KCl, 5 mM MgCl2, 2 mM β-mercaptoethanol; one set of sites model; details: both partners purified
Escherichia coli MnmG [3] = target: B3; test: ITC; MnmE 700 μM in the syringe, MnmG 70 μM in the cell; no ligands; 25°C; 20 mM HEPES pH 7.5, 75 mM NaCl, 75 mM KCl, 5 mM MgCl2, 2 mM β-mercaptoethanol; one set of sites model; details: both partners purified
Escherichia coli MnmG [4] = target: B3; test: ITC; MnmE 700 μM in the syringe, MnmG 70 μM in the cell; with 1 mM GppNHp; 25°C; 20 mM HEPES pH 7.5, 75 mM NaCl, 75 mM KCl, 5 mM MgCl2, 2 mM β-mercaptoethanol; one set of sites model; details: both partners purified
Escherichia coli MnmG [5] = target: B3; test: ITC; wild-type or mutant MnmE 700 μM in the syringe, MnmG 70 μM in the cell; with 1 mM FAD and 1 mM GppNHp; 25°C; 20 mM HEPES pH 7.5, 75 mM NaCl, 75 mM KCl, 5 mM MgCl2, 2 mM β-mercaptoethanol; one set of sites model; details: both partners purified

Binder	stoichiometry N [1]	Kd (Escherichia coli MnmG [2]) [nM]	stoichiometry N (Escherichia coli MnmG [2])	Kd (Escherichia coli MnmG [3]) [nM]	stoichiometry N (Escherichia coli MnmG [3])	Kd (Escherichia coli MnmG [4]) [nM]	stoichiometry N (Escherichia coli MnmG [4])	Kd (Escherichia coli MnmG [5]) [nM]	stoichiometry N (Escherichia coli MnmG [5])
B1	2	800	0.8	3400	0.9	770	1.1	420	0.6
B2								2200	0.5
B3	2								
B4								4100	0.8
B5								1700	0.6
